Test system: MBP-(ZF)x6 (designed chimera), Q01844-5+P47974+O95218+O95218+P52756+P47974
Experiment: BLI
Settings: ITC: 50 mM Tris pH 7.5, 150 mM NaCl, 1 mM DTT, 0.1 mM ZnCl2, 25 °C, BLI: 50 mM Tris pH 7.5, 150 mM NaCl, 0.1% BSA, 0.02% Tween, 30 °C

MBP-(ZF)x6 (designed chimera), Q01844-5+P47974+O95218+O95218+P52756+P47974, sequence (P52756 whole entry, looked up, change not shown, chain 1 of 4): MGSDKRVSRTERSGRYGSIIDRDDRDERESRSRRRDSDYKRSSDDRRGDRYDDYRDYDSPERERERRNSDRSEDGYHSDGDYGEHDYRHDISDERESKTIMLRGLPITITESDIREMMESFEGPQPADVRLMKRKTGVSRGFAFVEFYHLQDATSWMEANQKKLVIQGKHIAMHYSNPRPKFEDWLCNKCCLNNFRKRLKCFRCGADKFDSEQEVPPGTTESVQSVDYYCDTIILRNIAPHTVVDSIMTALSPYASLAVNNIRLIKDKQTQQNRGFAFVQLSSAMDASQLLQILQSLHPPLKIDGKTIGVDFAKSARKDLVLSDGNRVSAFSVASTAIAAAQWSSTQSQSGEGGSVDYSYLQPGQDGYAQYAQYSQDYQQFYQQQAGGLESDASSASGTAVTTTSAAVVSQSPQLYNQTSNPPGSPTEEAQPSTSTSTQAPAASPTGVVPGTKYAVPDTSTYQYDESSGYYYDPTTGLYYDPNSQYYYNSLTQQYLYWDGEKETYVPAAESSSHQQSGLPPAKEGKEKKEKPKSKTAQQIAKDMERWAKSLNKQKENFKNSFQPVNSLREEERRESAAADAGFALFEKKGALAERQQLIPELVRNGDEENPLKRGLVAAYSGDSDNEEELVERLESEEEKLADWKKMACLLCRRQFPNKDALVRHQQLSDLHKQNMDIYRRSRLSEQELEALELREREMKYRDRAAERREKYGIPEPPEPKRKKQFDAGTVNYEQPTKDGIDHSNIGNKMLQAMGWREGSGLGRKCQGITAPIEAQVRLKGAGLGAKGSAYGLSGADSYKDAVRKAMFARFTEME
MBP-(ZF)x6 (designed chimera), Q01844-5+P47974+O95218+O95218+P52756+P47974, sequence (P47974 whole entry, looked up, change not shown, chain 2 of 4): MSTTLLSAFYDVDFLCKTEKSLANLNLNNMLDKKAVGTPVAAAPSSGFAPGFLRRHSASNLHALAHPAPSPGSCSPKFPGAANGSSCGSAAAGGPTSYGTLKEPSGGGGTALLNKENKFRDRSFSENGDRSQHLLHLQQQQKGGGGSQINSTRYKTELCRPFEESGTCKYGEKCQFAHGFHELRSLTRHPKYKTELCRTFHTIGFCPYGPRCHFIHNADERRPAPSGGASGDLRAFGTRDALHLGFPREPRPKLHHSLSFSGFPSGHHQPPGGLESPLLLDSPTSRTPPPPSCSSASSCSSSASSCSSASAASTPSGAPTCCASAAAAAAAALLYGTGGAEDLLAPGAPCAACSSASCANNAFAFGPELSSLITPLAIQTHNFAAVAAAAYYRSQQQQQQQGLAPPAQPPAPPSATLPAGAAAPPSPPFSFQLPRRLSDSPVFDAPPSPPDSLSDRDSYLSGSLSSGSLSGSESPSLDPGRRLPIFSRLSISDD
MBP-(ZF)x6 (designed chimera), Q01844-5+P47974+O95218+O95218+P52756+P47974, sequence (O95218 whole entry, looked up, change not shown, chain 3 of 4): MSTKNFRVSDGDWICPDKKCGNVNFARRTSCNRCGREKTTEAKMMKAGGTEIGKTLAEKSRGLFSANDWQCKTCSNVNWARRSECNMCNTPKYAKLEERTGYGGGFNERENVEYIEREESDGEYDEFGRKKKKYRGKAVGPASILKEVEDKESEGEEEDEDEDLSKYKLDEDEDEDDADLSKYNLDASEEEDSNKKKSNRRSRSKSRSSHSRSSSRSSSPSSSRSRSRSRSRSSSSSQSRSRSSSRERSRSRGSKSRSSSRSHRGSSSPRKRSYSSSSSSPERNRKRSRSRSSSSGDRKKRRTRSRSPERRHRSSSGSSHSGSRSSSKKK
MBP-(ZF)x6 (designed chimera), Q01844-5+P47974+O95218+O95218+P52756+P47974, sequence (Q01844 whole entry, looked up, change not shown, chain 4 of 4): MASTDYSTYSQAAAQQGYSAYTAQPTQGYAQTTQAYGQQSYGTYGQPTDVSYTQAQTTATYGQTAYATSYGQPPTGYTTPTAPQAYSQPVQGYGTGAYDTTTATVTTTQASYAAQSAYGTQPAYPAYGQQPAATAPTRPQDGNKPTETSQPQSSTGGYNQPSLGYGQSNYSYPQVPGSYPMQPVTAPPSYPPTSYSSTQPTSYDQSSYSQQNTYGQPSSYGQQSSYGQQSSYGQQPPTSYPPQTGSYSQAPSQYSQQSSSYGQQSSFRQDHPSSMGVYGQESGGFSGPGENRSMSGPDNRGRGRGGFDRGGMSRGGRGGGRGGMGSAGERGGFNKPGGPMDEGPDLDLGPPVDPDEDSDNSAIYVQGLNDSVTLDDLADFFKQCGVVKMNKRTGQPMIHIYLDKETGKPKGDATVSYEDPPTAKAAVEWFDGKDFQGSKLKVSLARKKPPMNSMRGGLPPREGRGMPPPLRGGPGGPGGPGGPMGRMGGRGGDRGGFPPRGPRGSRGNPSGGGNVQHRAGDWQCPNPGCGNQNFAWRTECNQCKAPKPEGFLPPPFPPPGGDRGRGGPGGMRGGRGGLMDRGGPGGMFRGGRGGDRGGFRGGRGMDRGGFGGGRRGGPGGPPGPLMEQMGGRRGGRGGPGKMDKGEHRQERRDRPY

AAAGGUUAUUGGUGCCGGGUAUUAAA [(ZF)x6 target]
Kd: 24 nM

AAAUAUUGGUGGGUAUUGCCGGUAAA [PT (permuted target)]
Kd: 223 nM

From article PMC6384913
